Test results taken from patent publication US20100015650.

T1: BRB1 tyrosine kinase substrate peptide
T1 chain: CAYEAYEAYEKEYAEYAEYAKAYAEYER

B1: BTK (protein)
chain: AAVILESIFLKRSQQKKKTSPLNFKKRLFLLTVHKLSYYEYDFERGRRGSKKGSIDVEKITCVETVVPEKNPPPERQIPRRGEESSEMEQISIIERFPYPFQVVYDEGPLYVFSPTEELRKRWIHQLKNVIRYNSDLVQKYHPCFWIDGQYLCCSQTAKNAMGCQILENRNGSLKPGSSHRKTKKPLPPTPEEDQILKKPLPPEPAAAPVSTSELKKVVALYDYMPMNANDLQLRKGDEYFILEESNLPWWRARDKNGQEGYIPSNYVTEAEDSIEMYEWYSKHMTRSQAEQLLKQEGKEGGFIVRDSSKAGKYTVSVFAKSTGDPQGVIRHYVVCSTPQSQYYLAEKHLFSTIPELINYHQHNSAGLISRLKYPVSQQNKNAPSTAGLGYGSWEIDPKDLTFLKELGTGQFGVVKYGKWRGQYDVAIKMIKEGSMSEDEFIEEAKVMMNLSHEKLVQLYGVCTKQRPIFIITEYMANGCLLNYLREMRHRFQTQQLLEMCKDVCEAMEYLESKQFLHRDLAARNCLVNDQGVVKVSDFGLSRYVLDDEYTSSVGSKFPVRWSPPEVLMYSKFSSKSDIWAFGVLMWEIYSLGKMPYERFTNSETAEHIAQGLRLYRPHLASEKVYTIMYSCWHEKADERPTFKILLSNILDVMDEES
B2: TYRO3 (protein)
chain: LRKRRKETRFGQAFDSVMARGEPAVHFRAARSFNRERPERIEATLDSLGISDELKEKLEDVLIPEQQFTLGRMLGKGEFGSVREAQLKQEDGSFVKVAVKMLKADIIASSDIEEFLREAACMKEFDHPHVAKLVGVSLRSRAKGRLPIPMVILPFMKHGDLHAFLLASRIGENPFNLPLQTLIRFMVDIACGMEYLSSRNFIHRDLAARNCMLAEDMTVCVADFGLSRKIYSGDYYRQGCASKLPVKWLALESLADNLYTVQSDVWAFGVTMWEIMTRGQTPYAGIENAEIYNYLIGGNRLKQPPECMEDVYDLMYQCWSADPKQRPSFTCLRMELENILGQLSVLSASQDPLYINIERAEEPTAGGSLELPGRDQPYSGAGDGSGMGAVGGTPSDCRYILTPGGLAEQPGQAEHQPESPLNETQRLLLLQQGLLPHSSC
B3: RON (protein)
chain: SYWWRRKQLVLPPNLNDLASLDQTAGATPLPILYSGSDYRSGLALPAIDGLDSTTCVHGASFSDSEDESCVPLLRKESIQLRDLDSALLAEVKDVLIPHERVVTHSDRVIGKGHFGVVYHGEYIDQAQNRIQCAIKSLSRITEMQQVEAFLREGLLMRGLNHPNVLALIGIMLPPEGLPHVLLPYMCHGDLLQFIRSPQRNPTVKDLISFGLQVARGMEYLAEQKFVHRDLAARNCMLDESFTVKVADFGLARDILDREYYSVQQHRHARLPVKWMALESLQTYRFTTKSDVWSFGVLLWELLTRGAPPYRHIDPFDLTHFLAQGRRLPQPEYCPDSLYQVMQQCWEADPAVRPTFRVLVGEVEQIVSALLGDHYVQLPATYMNLGPSTSHEMNVRPEQPQFSPMPGNVRRPRPLSEPPRPT
B4: RET (protein)
chain: HCYHKFAHKPPISSAEMTFRRPAQAFPVSYSSSGARRPSLDSMENQVSVDAFKILEDPKWEFPRKNLVLGKTLGEGEFGKVVKATAFHLKGRAGYTTVAVKMLKENASPSELRDLLSEFNVLKQVNHPHVIKLYGACSQDGPLLLIVEYAKYGSLRGFLRESRKVGPGYLGSGGSRNSSSLDHPDERALTMGDLISFAWQISQGMQYLAEMKLVHRDLAARNILVAEGRKMKISDFGLSRDVYEEDSYVKRSQGRIPVKWMAIESLFDHIYTTQSDVWSFGVLLWEIVTLGGNPYPGIPPERLFNLLKTGHRMERPDNCSEEMYRLMLQCWKQEPDKRPVFADISKDLEKMMVKRRDYLDLAASTPSDSLIYDDGLSEEETPLVDCNNAPLPRALPSTWIENKLYGMSDPNWPGESPVPLTRADGTNTGFPRYPNDSVYANWMLSPSAAKLMDTFDS
B5: ROS (protein)
chain: HRRLKNQKSAKEGVTVLINEDKELAELRGLAAGVGLANACYAIHTLPTQEEIENLPAFPREKLTLRLLLGSGAFGEVYEGTAVDILGVGSGEIKVAVKTLKKGSTDQEKIEFLKEAHLMSKFNHPNILKQLGVCLLNEPQYIILELMEGGDLLTYLRKARMATFYGPLLTLVDLVDLCVDISKGCVYLERMHFIHRDLAARNCLVSVKDYTSPRIVKIGDFGLARDIYKNDYYRKRGEGLLPVRWMAPESLMDGIFTTQSDVWSFGILIWEILTLGHQPYPAHSNLDVLNYVQTGGRLEPPRNCPDDLWNLMTQCWAQEPDQRPTFHRIQDQLQLFRNFFLNSIYKSRDEANNSGVINESFEGEDGDVICLNSDDIMPVALMETKNREGLNYMVLATECGQGEEKSEGPLGSQESESCGLRKEEKEPHADKDFCQEKQVAYCPSGKPEGLNYACLTHSGYGDGSD
B6: TIE2 (protein)
chain: QLKRANVQRRMAQAFQNVREEPAVQFNSGTLALNRKVKNNPDPTIYPVLDWNDIKFQDVIGEGNFGQVLKARIKKDGLRMDAAIKRMKEYASKDDHRDFAGELEVLCKLGHHPNIINLLGACEHRGYLYLAIEYAPHGNLLDFLRKSRVLETDPAFAIANSTASTLSSQQLLHFAADVARGMDYLSQKQFIHRDLAARNILVGENYVAKIADFGLSRGQEVYVKKTMGRLPVRWMAIESLNYSVYTTNSDVWSYGVLLWEIVSLGGTPYCGMTCAELYEKLPQGYRLEKPLNCDDEVYDLMRQCWREKPYERPSFAQILVSLNRMLEERKTYVNTTLYEKFTYAGIDCSAEEAA
B7: ROR2 (protein)
chain: VCMCRNKQKASASTPQRRQLMASPSQDMEMPLINQHKQAKLKEISLSAVRFMEELGEDRFGKVYKGHLFGPAPGEQTQAVAIKTLKDKAEGPLREEFRHEAMLRARLQHPNVVCLLGVVTKDQPLSMIFSYCSHGDLHEFLVMRSPHSDVGSTDDDRTVKSALEPPDFVHLVAQIAAGMEYLSSHHVVHKDLATRNVLVYDKLNVKISDLGLFREVYAADYYKLLGNSLLPIRWMAPEAIMYGKFSIDSDIWSYGVVLWEVFSYGLQPYCGYSNQDVVEMIRNRQVLPCPDDCPAWVYALMIECWNEFPSRRPRFKDIHSRLRAWGNLSNYNSSAQTSGASNTTQTSSLSTSPVSNVSNARYVGPKQKAPPFPQPQFIPMKGQIRPMVPPPQLYVPVNGYQPVPAYGAYLPNFYPVQIPMQMAPQQVPPQMVPKPSSHHSGSGSTSTGYVTTAPSNTSMADRAALLSEGADDTQNAPEDGAQSTVQEAEEEEEGSVPETELLGDCDTLQVDEAQVQLEA
B8: ROR1 (protein)
chain: CRNNQKSSSAPVQRQPKHVRGQNVEMSMLNAYKPKSKAKELPLSAVRFMEELGECAFGKIYKGHLYLPGMDHAQLVAIKTLKDYNNPQQWTEFQQEASLMAELHHPNIVCLLGAVTQEQPVCMLFEYINQGDLHEFLIMRSPHSDVGCSSDEDGTVKSSLDHGDFLHIAIQIAAGMEYLSSHFFVHKDLAARNILIGEQLHVKISDLGLSREIYSADYYRVQSKSLLPIRWMPPEAIMYGKFSSDSDIWSFGVVLWEIFSFGLQPYYGFSNQEVIEMVRKRQLLPCSEDCPPRMYSLMTECWNEIPSRRPRFKDIHVRLRSWEGLSSHTSSTTPSGGNATTQTTSLSASPVSNLSNPRYPNYMFPSQGITPQGQIAGFIGPPIPQNQRFIPINGYPIPPGYAAFPAAHYQPTGPPRVIQHCPPPKSRSPSSASGSTSTGHVTSLPSSGSNQEANIPLLPHMSIPNHPGGMGITVFGNKSQKPYKIDSKQASLLGDANIHGHTESMISAEL

Molecular target: T1, BRB1 tyrosine kinase substrate peptide

Protein | Signal to Noise ratio with BRB1 Peptide (TR-FRET kinase assay; kinase 0.25 nM) | further results
B1 | 6.8 | 
B2 | 6.1 | 
B3 | 3.5 | 
B4 |  | Signal to Noise ratio with BRB1 Peptide (TR-FRET kinase assay; kinase 0.5 nM): 20.3
B5 | 24.5 | 
B6 |  | Signal to Noise ratio with BRB1 Peptide (TR-FRET kinase assay; kinase 0.5 nM): 17.7
B7 |  | Signal to Noise Ratio with BRB1 Peptide (TR-FRET kinase assay; kinase 20 nM): 1
B8 |  | Signal to Noise Ratio with BRB1 Peptide (TR-FRET kinase assay; kinase 20 nM): 1.1
